Test results published in patent US20120316071A1 (published 2012).

Tests used:
[1] = target: T1, Recombinant Human DLL4 (R&D Systems Cat#1506-D4/CF) (human, UniProt Q9NR61 27-524); assay: ECL (MSD) multispot binding assay, DLL4 immobilised, Fab in solution
T1 construct: Bought protein (R&D Systems Cat#1506-D4/CF), immobilised on the MSD plate; also called delta-like protein 4; rHuman DLL4

[2] = target: T2, Recombinant Human DLL4 (delta-like protein 4) (human, UniProt Q9NR61 27-529); assay: ELISA, DLL4 coated on plate, Fab in solution, absorbance at 450 nm
T2 construct: Bought recombinant human DLL4 (R&D Systems Cat#1506-D4/CF); also called rHuman DLL4; Delta-like 4

[3] = target: T2, Recombinant Human DLL4 (delta-like …); assay: 96-well plate ECL binding assay, DLL4 immobilised, Fab in solution
[4] = target: T3, rHuman Erythropoietin R/Fc Chimera, CF (human, UniProt P19235 25-250); assay: ECL Multispot (MSD) assay; antigen spotted on plate, Fab in solution;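 note: fab bound 1 h at 20 °C, detected by TAG-labelled antibody electrochemiluminescence, signal relative to each well's blank, ratio of 4 or more marks a hit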
T3 construct: Bought from R&D Systems; also called EPO R; EPO R/Fc; not shown: Fc of the bought chimera
T3 sequence (looked up): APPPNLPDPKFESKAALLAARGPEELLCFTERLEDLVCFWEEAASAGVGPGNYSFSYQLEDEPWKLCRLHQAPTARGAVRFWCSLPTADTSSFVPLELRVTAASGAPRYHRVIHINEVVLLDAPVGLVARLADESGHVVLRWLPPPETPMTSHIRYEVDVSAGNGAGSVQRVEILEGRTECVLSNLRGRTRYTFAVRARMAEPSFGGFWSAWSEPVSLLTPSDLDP

[5] = target: T4, Recombinant Human DLL4 (human, UniProt Q9NR61 27-524); assay: as above
T4 construct: Bought from R&D Systems; also called delta-like protein 4; rHuman DLL4

[6] = target: T5, rHuman EGF R/Fc Chimera, CF (human, UniProt P00533 25-645); assay: as above
T5 construct: Bought from R&D Systems; also called epidermal growth factor receptor; not shown: Fc of the bought chimera

[7] = target: T6, rHuman ErbB2/Fc Chimera, CF (human, UniProt P04626 23-652); assay: as above
T6 construct: Bought from R&D Systems; also called human epidermal growth factor 2 receptor; not shown: Fc of the bought chimera

[8] = target: T7, rHuman CD44/Fc Chimera, CF (human, UniProt P16070 21-220); assay: as above
T7 construct: Bought from R&D Systems; not shown: Fc of the bought chimera

[9] = target: T8, rHuman HGF R/c-MET/Fc Chimera, CF (human, UniProt P08581 25-932); assay: as above
T8 construct: Bought from R&D Systems; also called HGF R/Fc; hepatocyte growth factor receptor; not shown: Fc of the bought chimera
T8 sequence (P08581 25-932, change not shown): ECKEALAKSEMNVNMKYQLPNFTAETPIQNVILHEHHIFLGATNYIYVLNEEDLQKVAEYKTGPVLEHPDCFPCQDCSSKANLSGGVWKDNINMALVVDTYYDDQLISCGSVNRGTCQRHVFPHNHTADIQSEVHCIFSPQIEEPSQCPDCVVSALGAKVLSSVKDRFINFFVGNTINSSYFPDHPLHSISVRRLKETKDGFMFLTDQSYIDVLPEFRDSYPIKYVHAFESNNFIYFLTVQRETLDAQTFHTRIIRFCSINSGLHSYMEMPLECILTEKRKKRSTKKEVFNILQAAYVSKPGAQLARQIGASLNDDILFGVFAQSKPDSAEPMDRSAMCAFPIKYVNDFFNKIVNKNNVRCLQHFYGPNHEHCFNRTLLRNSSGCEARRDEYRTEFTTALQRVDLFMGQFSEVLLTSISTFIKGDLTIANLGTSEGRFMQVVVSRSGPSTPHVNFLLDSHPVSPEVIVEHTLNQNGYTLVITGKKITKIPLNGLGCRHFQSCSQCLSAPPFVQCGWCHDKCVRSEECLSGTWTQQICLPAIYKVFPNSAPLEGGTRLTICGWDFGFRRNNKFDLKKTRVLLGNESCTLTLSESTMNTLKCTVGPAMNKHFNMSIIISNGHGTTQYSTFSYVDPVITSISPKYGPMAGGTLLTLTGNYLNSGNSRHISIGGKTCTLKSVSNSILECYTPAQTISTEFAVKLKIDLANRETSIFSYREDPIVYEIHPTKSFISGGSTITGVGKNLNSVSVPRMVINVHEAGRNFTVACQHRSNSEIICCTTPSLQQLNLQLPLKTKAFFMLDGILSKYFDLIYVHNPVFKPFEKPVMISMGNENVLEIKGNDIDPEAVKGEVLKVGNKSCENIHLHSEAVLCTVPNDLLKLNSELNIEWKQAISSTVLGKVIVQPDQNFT

[10] = target: T9, rHuman IGF-1 sR, (IGF-1 sR), CF (human, UniProt P08069 31-932); assay: as above
T9 construct: Bought from R&D Systems; also called insulin-like growth factor-1 soluble receptor

[11] = target: T10, rHuman Notch-1/Fc Chimera, CF (human, UniProt P46531 19-526); assay: as above
T10 construct: Bought from R&D Systems; not shown: Fc of the bought chimera

[12] = target: T11, rHuman HGF R/c-MET/Fc Chimera, CF (R&D Systems Cat#358-MT/CF) (human, UniProt P08581 25-932); assay: ECL multispot (MSD) binding assay, antigen spotted on plate;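 note: purified Fab incubated 1 h at 20 °C on antigen spots, detected with TAG-labelled antibody, electrochemiluminescence compared with each well's blank, signal-to-blank ratio ≥4 counted as hit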
T11 construct: Bought recombinant protein; also called HGF R/Fc; hepatocyte growth factor receptor
T11 sequence (P08581 25-932, change not shown): as above

[13] = target: T12, rHuman P-Cadherin/Fc Chimera, CF (R&D Systems Cat#861-PC) (human, UniProt P22223 108-654); assay: as above
T12 construct: Bought recombinant protein

[14] = target: T13, rHuman EGF R/Fc Chimera, CF (R&D Systems Cat#344-ER) (human, UniProt P00533 25-645); assay: as above
T13 construct: Bought recombinant protein; also called epidermal growth factor receptor

[15] = target: T14, rHuman CD44/Fc Chimera, CF (R&D Systems Cat#3660-CD) (human, UniProt P16070 21-220); assay: as above
T14 construct: Bought recombinant protein

[16] = target: T15, Recombinant Human DLL4 (R&D Systems Cat#1506-D4/CF) (human, UniProt Q9NR61 27-524); assay: as above
T15 construct: Bought recombinant protein; also called delta-like protein 4; rHuman DLL4

[17] = target: T16, rHuman Notch-1/Fc Chimera, CF (R&D Systems Cat#3647-TK) (human, UniProt P46531 19-526); assay: as above
T16 construct: Bought recombinant protein

[18] = target: T17, rHuman ErbB2/Fc Chimera, CF (R&D Systems Cat#1129-ER) (human, UniProt P04626 23-652); assay: as above
T17 construct: Bought recombinant protein; also called human epidermal growth factor 2 receptor

[19] = target: T18, rHuman IGF-1 sR, (IGF-1 sR), CF (R&D Systems Cat#391-GR) (human, UniProt P08069 31-932); assay: as above
T18 construct: Bought recombinant soluble receptor; also called insulin-like growth factor-1 soluble receptor

B1: Fab VH1-46_IGHD6-6*01_IGHJ1*01 S102A/S103P/S104F (APF) & L6_IGKJ1*01 R91P (Fab, V domains shown)
VH: QVQLVQSGAEVKKPGASVKVSCKASGYTFTSYYMHWVRQAPGQGLEWMGIINPSGGSTSYAQKFQGRVTMTRDTSTSTVYMELSSLRSEDTAVYYCAREEYAPFSAEYFQHWGQGTLVTVSS
VL: EIVLTQSPATLSLSPGERATLSCRASQSVSSYLAWYQQKPGQAPRLLIYDASNRATGIPARFSGSGSGTDFTLTISSLEPEDFAVYYCQQPSNWPPWTFGQGTKVEIKR
notes: Fab with CH1 plus His6/Flag tags and kappa CL from the expression plasmids; also called APF & R91P
ECL signal [1]: 1280
Signal/Blank [1]: 4.7

B2: Fab VH1-46_IGHD6-6*01_IGHJ1*01 S102A/S103P/S104F/H111F & L6_IGKJ1*01 S28N/S30D/S31H (Fab, V domains shown)
VH: QVQLVQSGAEVKKPGASVKVSCKASGYTFTSYYMHWVRQAPGQGLEWMGIINPSGGSTSYAQKFQGRVTMTRDTSTSTVYMELSSLRSEDTAVYYCAREEYAPFSAEYFQFWGQGTLVTVSS
VL: EIVLTQSPATLSLSPGERATLSCRASQNVDHYLAWYQQKPGQAPRLLIYDASNRATGIPARFSGSGSGTDFTLTISSLEPEDFAVYYCQQRSNWPPWTFGQGTKVEIKR
notes: Parental template of this NNK series; Fab with CH1 (plasmid A, His6 and Flag tags) and kappa CL (plasmid C); also called H:APFF & L:NDH; NDH
ELISA (Avgerage signal-noise) [2]: 0.165
ECL signal [3]: 18700

B3: Fab VH1-46_IGHD6-6*01_IGHJ1*01 S102A/S103P/S104F/H111F (APFF) & L6_IGKJ1*01 S28Q (Fab, V domains shown)
VH: QVQLVQSGAEVKKPGASVKVSCKASGYTFTSYYMHWVRQAPGQGLEWMGIINPSGGSTSYAQKFQGRVTMTRDTSTSTVYMELSSLRSEDTAVYYCAREEYAPFSAEYFQFWGQGTLVTVSS
VL: EIVLTQSPATLSLSPGERATLSCRASQQVSSYLAWYQQKPGQAPRLLIYDASNRATGIPARFSGSGSGTDFTLTISSLEPEDFAVYYCQQRSNWPPWTFGQGTKVEIKR
notes: Fab made in E. coli; the variable domains were cloned into Plasmid A (CH1, His and Flag tags) and Plasmid C (kappa CL); also called APFF / S28Q
ECL signal [4]: 437
ECL signal [5]: 133000
ECL signal [6]: 517
ECL signal [7]: 345
ECL signal [8]: 420
ECL signal [9]: 380
ECL signal [10]: 404
ECL signal [11]: 331

B4: Fab VH1-46_IGHD6-6*01_IGHJ1*01 S102A/S103P/S104F/H111F (APFF) & L6_IGKJ1*01 S31A (Fab, V domains shown)
VH: QVQLVQSGAEVKKPGASVKVSCKASGYTFTSYYMHWVRQAPGQGLEWMGIINPSGGSTSYAQKFQGRVTMTRDTSTSTVYMELSSLRSEDTAVYYCAREEYAPFSAEYFQFWGQGTLVTVSS
VL: EIVLTQSPATLSLSPGERATLSCRASQSVSAYLAWYQQKPGQAPRLLIYDASNRATGIPARFSGSGSGTDFTLTISSLEPEDFAVYYCQQRSNWPPWTFGQGTKVEIKR
notes: Tested as Fab (CH1 with His6/Flag tags, kappa CL) made in E. coli; also called APFF / S31A
ECL signal [12]: 309
ECL signal [13]: 361
ECL signal [14]: 415
ECL signal [15]: 406
ECL signal [16]: 192000
ECL signal [17]: 424
ECL signal [18]: 383
ECL signal [19]: 334

B5: Fab VH1-46_IGHD6-6*01_IGHJ1*01 S102A/S103P/S104F/H111F (APFF) & L6_IGKJ1*01 N93Q (Fab, V domains shown)
VH: QVQLVQSGAEVKKPGASVKVSCKASGYTFTSYYMHWVRQAPGQGLEWMGIINPSGGSTSYAQKFQGRVTMTRDTSTSTVYMELSSLRSEDTAVYYCAREEYAPFSAEYFQFWGQGTLVTVSS
VL: EIVLTQSPATLSLSPGERATLSCRASQSVSSYLAWYQQKPGQAPRLLIYDASNRATGIPARFSGSGSGTDFTLTISSLEPEDFAVYYCQQRSQWPPWTFGQGTKVEIKR
notes: Fab with CH1 plus His6/Flag tags and kappa CL from the expression plasmids; also called APFF & N93Q
ECL signal [1]: 704

B6: Fab VH1-46_IGHD6-6*01_IGHJ1*01 S102A/S103P/S104F (APF) & L6_IGKJ1*01 S92N (Fab, V domains shown)
VH: QVQLVQSGAEVKKPGASVKVSCKASGYTFTSYYMHWVRQAPGQGLEWMGIINPSGGSTSYAQKFQGRVTMTRDTSTSTVYMELSSLRSEDTAVYYCAREEYAPFSAEYFQHWGQGTLVTVSS
VL: EIVLTQSPATLSLSPGERATLSCRASQSVSSYLAWYQQKPGQAPRLLIYDASNRATGIPARFSGSGSGTDFTLTISSLEPEDFAVYYCQQRNNWPPWTFGQGTKVEIKR
notes: Fab with CH1 plus His6/Flag tags and kappa CL from the expression plasmids; also called APF & S92N
ECL signal [1]: 2090
